{
  "source": "paper PMC3404614",
  "about": "(Biochimica et Biophysica Acta, 2012)",
  "molecules": {"B1": {"name": "hepatocyte growth factor (protein, UniProt P17945 33-495; P17945 496-728, looked up)", "Hepatocyte growth factor …": "QKKRRNTLHEFKKSAKTTLTKEDPLVKIKTKKVNSADECANRCIRNKGFPFTCKAFVFDKSRKRCYWYPFNSMSSGVKKGFGHEFDLYENKDYIRNCIIGKGGSYKGTVSITKSGIKCQPWNSMIPHEHSFLPSSYRGKDLQENYCRNPRGEEGGPWCFTSNPEVRYEVCDIPQCSEVECMTCNGESYRGPMDHTESGKTCQRWDQQTPHRHKFLPERYPDKGFDDNYCRNPDGKPRPWCYTLDPDTPWEYCAIKMCAHSAVNETDVPMETTECIKGQGEGYRGTTNTIWNGIPCQRWDSQYPHKHDITPENFKCKDLRENYCRNPDGAESPWCFTTDPNIRVGYCSQIPKCDVSSGQDCYRGNGKNYMGNLSKTRSGLTCSMWDKNMEDLHRHIFWEPDASKLTKNYCRNPDDDAHGPWCYTGNPLVPWDYCPISRCEGDTTPTIVNLDHPVISCAKTKQLR", "Hepatocyte growth factor beta …": "VVNGIPTQTTVGWMVSLKYRNKHICGGSLIKESWVLTARQCFPARNKDLKDYEAWLGIHDVHERGEEKRKQILNISQLVYGPEGSDLVLLKLARPAILDNFVSTIDLPSYGCTIPEKTTCSIYGWGYTGLINADGLLRVAHLYIMGNEKCSQHHQGKVTLNESELCAGAEKIGSGPCEGDYGGPLICEQHKMRMVLGVIVPGRGCAIPNRPGIFVRVAYYAKWIHKVILTYKL"}},
  "test_system": "Akt",
  "test": "pS473 Akt phosphorylation by pancreatic growth factors",
  "type": "cell-based",
  "conditions": "rat pancreatic acini; data not shown",
  "data": [
    {"molecule": "B1", "values": [
      {"measurement": "pS473 Akt phosphorylation", "value": "stimulated pS473 Akt phosphorylation"}
    ]}
  ]
}
